Article PMC3549248, “Charcot–Marie–Tooth type 2B disease-causing RAB7A mutant proteins show altered interaction with the neuronal intermediate filament peripherin” (Acta Neuropathologica, 2012)
Each block holds one binder with its values, some of them ahead of it.

Experiments:
[1] = biological target: T1, pGADT7Rec-peripherin, P41219; assay: yeast two-hybrid β-galactosidase liquid assay; conditions: chain shown with the change; ONPG as substrate; parent: est. 80; read off a plot
T1 chain: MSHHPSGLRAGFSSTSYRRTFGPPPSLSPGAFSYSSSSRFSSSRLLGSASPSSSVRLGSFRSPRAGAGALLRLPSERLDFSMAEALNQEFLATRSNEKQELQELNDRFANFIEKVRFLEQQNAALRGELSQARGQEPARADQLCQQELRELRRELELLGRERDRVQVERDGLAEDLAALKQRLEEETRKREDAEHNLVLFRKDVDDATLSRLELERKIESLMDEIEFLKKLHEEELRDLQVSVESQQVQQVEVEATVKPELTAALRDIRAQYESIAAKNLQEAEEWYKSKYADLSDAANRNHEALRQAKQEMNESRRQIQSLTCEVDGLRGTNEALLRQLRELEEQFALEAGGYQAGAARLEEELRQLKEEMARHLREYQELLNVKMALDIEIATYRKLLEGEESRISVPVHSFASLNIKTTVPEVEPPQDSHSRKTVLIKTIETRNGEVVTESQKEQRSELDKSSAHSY

His-tagged RAB7A Q67L = biological target: T2, His-tagged RAB7A Q67L (UniProt P18067 1-207, Q67L); assay: pull-down; 20 μg purified His-tagged RAB7A bound to NiNTA resin, incubated with Neuro2A cell extracts at 4 °C for 1 h; blot for peripherin; conditions: one partner purified
T2 construct: RAB7A constitutively active mutant, from E. coli; also called constitutively active RAB7A Q67L mutant

His-tagged RAB7A L129F = biological target: T3, His-tagged RAB7A L129F (UniProt P18067 1-207, L129F); assay: as above; conditions: one partner purified
T3 construct: RAB7A with a CMT2B disease mutation, from E. coli; The pull-down text says 'the CMT2B RAB7A mutants'; also called CMT2B RAB7A mutant L129F

His-tagged RAB7A K157N = biological target: T4, His-tagged RAB7A K157N (UniProt P18067 1-207, K157N); assay: as above; conditions: one partner purified
T4 construct: RAB7A with a CMT2B disease mutation, from E. coli; The pull-down text says 'the CMT2B RAB7A mutants'; also called CMT2B RAB7A mutant K157 N

His-tagged RAB7A N161T = biological target: T5, His-tagged RAB7A N161T (UniProt P18067 1-207, N161T); assay: as above; conditions: one partner purified
T5 construct: RAB7A with a CMT2B disease mutation, from E. coli; The pull-down text says 'the CMT2B RAB7A mutants'; also called CMT2B RAB7A mutant N161T

His-tagged RAB7A V162M = biological target: T6, His-tagged RAB7A V162M (UniProt P18067 1-207, V162M); assay: as above; conditions: one partner purified
T6 construct: RAB7A with a CMT2B disease mutation, from E. coli; The pull-down text says 'the CMT2B RAB7A mutants'; also called CMT2B RAB7A mutant V162 M

HA-tagged RAB7A L129F = biological target: T7, HA-tagged RAB7A L129F (UniProt P18067 1-207, L129F); assay: co-IP; Neuro2A cells transfected with HA- or MYC-tagged RAB7A; RIPA lysate; anti-HA or anti-MYC resin 1 h at 4 °C; blot for endogenous peripherin; conditions: partners not purified
T7 construct: RAB7A with a CMT2B disease mutation; plasmid described previously; also called disease-causing mutant; source: Neuro2A or PC12 cells, transfected, in lysate

HA-tagged RAB7A K157N = biological target: T8, HA-tagged RAB7A K157N (UniProt P18067 1-207, K157N); assay: as above; conditions: partners not purified
T8 construct: RAB7A with a CMT2B disease mutation; plasmid described previously; also called disease-causing mutant; source: Neuro2A or PC12 cells, transfected, in lysate

HA-tagged RAB7A N161T = biological target: T9, HA-tagged RAB7A N161T (UniProt P18067 1-207, N161T); assay: as above; conditions: partners not purified
T9 construct: RAB7A with a CMT2B disease mutation; plasmid described previously; also called disease-causing mutant; source: Neuro2A or PC12 cells, transfected, in lysate

HA-tagged RAB7A V162M = biological target: T10, HA-tagged RAB7A V162M (UniProt P18067 1-207, V162M); assay: as above; conditions: partners not purified
T10 construct: RAB7A with a CMT2B disease mutation; plasmid described previously; also called disease-causing mutant; source: Neuro2A or PC12 cells, transfected, in lysate

B2: pGBKT7-RAB7A wt, P18067 T22N (protein)
chain: MTSRKKVLLKVIILGDSGVGKNSLMNQYVNKKFSNQYKATIGADFLTKEVMVDDRLVTMQIWDTAGQERFQSLGVAFYRGADCCVLVFDVTAPNTFKTLDSWRDEFLIQASPRDPENFPFVVLGNKIDLENRQVATKRAQAWCYSKNNIPYFETSAKEAINVEQAFQTIARNALKQETEVELYNEFPEPIKLDKNDRAKTSAESCSC
response (relative units) [1]: 115

B3: pGBKT7-RAB7A wt, P18067 K157N (protein)
chain: MTSRKKVLLKVIILGDSGVGKTSLMNQYVNKKFSNQYKATIGADFLTKEVMVDDRLVTMQIWDTAGQERFQSLGVAFYRGADCCVLVFDVTAPNTFKTLDSWRDEFLIQASPRDPENFPFVVLGNKIDLENRQVATKRAQAWCYSKNNIPYFETSANEAINVEQAFQTIARNALKQETEVELYNEFPEPIKLDKNDRAKTSAESCSC
response (relative units) [1]: 98

B4: pGBKT7-RAB7A wt, P18067 N161T (protein)
chain: MTSRKKVLLKVIILGDSGVGKTSLMNQYVNKKFSNQYKATIGADFLTKEVMVDDRLVTMQIWDTAGQERFQSLGVAFYRGADCCVLVFDVTAPNTFKTLDSWRDEFLIQASPRDPENFPFVVLGNKIDLENRQVATKRAQAWCYSKNNIPYFETSAKEAITVEQAFQTIARNALKQETEVELYNEFPEPIKLDKNDRAKTSAESCSC
response (relative units) [1]: 102

Now from value to binder:

response (relative units) [1]: 99
B1: pGBKT7-RAB7A wt, P18067 V162M (protein)
chain: MTSRKKVLLKVIILGDSGVGKTSLMNQYVNKKFSNQYKATIGADFLTKEVMVDDRLVTMQIWDTAGQERFQSLGVAFYRGADCCVLVFDVTAPNTFKTLDSWRDEFLIQASPRDPENFPFVVLGNKIDLENRQVATKRAQAWCYSKNNIPYFETSAKEAINMEQAFQTIARNALKQETEVELYNEFPEPIKLDKNDRAKTSAESCSC

pulled-down peripherin relative to RAB7A wt (His-tagged RAB7A Q67L): 2 fold of RAB7A wt | pulled-down peripherin relative to RAB7A wt (His-tagged RAB7A L129F): 2 fold of RAB7A wt | pulled-down peripherin relative to RAB7A wt (His-tagged RAB7A K157N): 2 fold of RAB7A wt | pulled-down peripherin relative to RAB7A wt (His-tagged RAB7A N161T): 2 fold of RAB7A wt | pulled-down peripherin relative to RAB7A wt (His-tagged RAB7A V162M): 2 fold of RAB7A wt | co-immunoprecipitated peripherin relative to RAB7A wt (HA-tagged RAB7A L129F): ~60 % more than RAB7A wt | co-immunoprecipitated peripherin relative to RAB7A wt (HA-tagged RAB7A K157N): ~60 % more than RAB7A wt | co-immunoprecipitated peripherin relative to RAB7A wt (HA-tagged RAB7A N161T): ~60 % more than RAB7A wt | co-immunoprecipitated peripherin relative to RAB7A wt (HA-tagged RAB7A V162M): ~60 % more than RAB7A wt
B5: peripherin (endogenous, Neuro2A cells) (natural protein, mouse (endogenous in Neuro2A), UniProt P15331 1-475, looked up)
chain: MPSSASMSHHHSSGLRSSISSTSYRRTFGPPPSLSPGAFSYSSSSRFSSSRLLGSGSPSSSARLGSFRAPRAGALRLPSERLDFSMAEALNQEFLATRSNEKQELQELNDRFANFIEKVRFLEQQNAALRGELSQARGQEPARADQLCQQELRELRRELELLGRERDRVQVERDGLAEDLAALKQRLEEETRKREDAEHNLVLFRKDVDDATLSRLELERKIESLMDEIEFLKKLHEEELRDLQVSVESQQVQQVEVEATVKPELTAALRDIRAQYENIAAKNLQEAEEWYKSKYADLSDAANRNHEALRQAKQEMNESRRQIQSLTCEVDGLRGTNEALLRQLRELEEQFALEAGGYQAGAARLEEELRQLKEEMARHLREYQELLNVKMALDIEIATYRKLLEGEESRISVPVHSFASLSLKTTVPEMEPLQDSHSKKMVLIRTIETRDGEKVVTESQKEQHSDLDKSSIHSY
notes: peripherin endogenous in mouse Neuro2A neuroblastoma cells, detected with anti-peripherin antibodies; main form of 58 kDa (Per-58); also called Per-58; source: endogenous, Neuro2A lysate
